The values below come from PMC6565677, “Kistamicin biosynthesis reveals the biosynthetic requirements for production of highly crosslinked glycopeptide antibiotics” (Nature Communications, 2019).

The labels stand for the following.
B1: Xkis-domain, standalone X-domain of the kistamicin NRPS (residues 1024-1493) (domain or fragment, UniProt A0A1V0AGC2 1024-1493, looked up)
chain: RPVLGPGRRADLDPDGPLPVTARQRRMWLLSRIGDEAEGLHVRVALRLRGRLDRDALAGALADVGGRHEILRTRFPGSRRDVRQEILDAETGRPPLEICPATEDELPGLLADRAGRPFDLTGEVPWRAHLFPLTDREQVLLVVAHRIAADEESVDVLVRDLAAAYGARREGRIPERAPLALQFADYALWERELLAGADERDSLIWDQIEFWRDRLAGGDDEHADTSAPPAGRARPVLPSRRAGSVPLRLPADSHARLLEAARSAGGTMFTAVHAALAMLLSRLDGRTSVTIGTRLPRDEEQTGLVPMVGPFSRWLALPVDLSGDPAFTEILGRARDVSEDAHRHQDLPFERLAELVVPVPSITRHPIFQVALQLDEDDVRPEESWALPGLRTSPVPMPEEAMELDLWLKLLDHRTDEGDADGLVGSLVYAEDRFDRAGAEALAQRLVALLEQVGAAPEVRLSQVDVPGSE
notes: X-domain (Oxy-recruiting domain) of the last module of the kistamicin NRPS, residues 1024-1493 of UniProt A0A1V0AGC2; Unlabelled form used for ITC and crystallisation; also called standalone Xkis domain; source: E. coli ArcticExpress, expressed as MBP fusion, purified (Ni-NTA, TEV cleavage, second Ni-NTA); not shown: His6, N-terminal, cleaved; MBP, N-terminal, cleaved
B2: OxyCkis (KisO), cytochrome P450 Oxy enzyme from kistamicin biosynthesis (enzyme, UniProt A0A1V0AGL8 1-426, looked up)
chain: MTDVTPGFVVDEATQVVTPEPDFIITRKHLEPTDSLRALRKRGALLKINGHALGSLDVDGTAYIWLATGYEVVRRILGDHENFSTRRRLTAGEPIDGTGVTPVKELVGHLMNLDPPEHTRLRRMLTPEFTLRRIRRLEPVISEIIEDHLNLIEDAGPPADLQSMYAEPVGGATLCELIGVPRDDRAEFLRRCGLHLDMSRGSKRRAADSMAFNGYLDHLIGLQRKRPDDGFIGMLVQEHGDDVTDDELRGMITVVLLAGLDNISGMLGLGVLALLEHPEQIPVIFEERAVTDRAVDELTRYLSITFQPTPRMALNDVVVDGQTIKAGEIVVCSLPMANRDEALTPDPDVLDLRRQLAGHVGFGHGVHHCLGSSVSRVVLRLAYQALWRRFPDLRLAVPPEDIVFRKAITHGPKRLPVTWGPSAATR
notes: OxyCkis (KisO), cytochrome P450 from the kistamicin gene cluster of Actinomadura parvosata subsp. kistnae; synthetic codon-optimised gene in pET28a; Heme protein; also called kistamicin OxyC; source: E. coli ArcticExpress, purified (Ni-NTA, anion exchange, size exclusion)
B3: OxyAkis (KisN), cytochrome P450 Oxy enzyme from kistamicin biosynthesis (enzyme)
chain: MVAPEHRVLHLRDRLDLAAELKLLCERGPLVRIPLEDGSAVHWFALGYDVVREVLGSEKFDKRVIGTHFNHQEMALPGNLLQLDPPEHTRLRRMVAPAYSVRRMQALEPRVQAIVDDHLDTMASTGPPVEFLREVAGPMAARVACEFLGIPLDDRGELIRLTAHRGGKRRRVLNGHAYLAYMRELAARLRRDPGDGMLGMVARDHGADISDEELAGLCAVVMNSSVEQTESCLAAGTLLLLEHPEQFALLRERPELGEQAVEEIVRYLSVFEGLDPRTATEDVEIGGQVIKKGEAVFCSLLAANRADPALDGFDITRKESRHVAFGHGIHHCLGAPLARMELRIAFTTLVSRFPSLRTAVPAEEIRFRPPSSNVFTLLELPLTW
notes: OxyAkis (KisN), cytochrome P450 from the kistamicin gene cluster of Actinomadura parvosata subsp. kistnae; synthetic codon-optimised gene in pET28a; Heme protein; also called kistamicin OxyA; source: E. coli ArcticExpress, purified (Ni-NTA, anion exchange, size exclusion)

What all share (assay): ITC; 1.27 mM X-domain injected into 300-400 µM OxyA/OxyC; 25 °C, stirring 300 rpm; 50 mM phosphate pH 7.4, 150 mM NaCl, 5% v/v glycerol; single binding site model; single titration (n = 1)
What all share (conditions): both partners purified
In general terms: Isothermal titration calorimetry measures the heat released or taken up as one component is titrated into another.

Test [1] addresses B3.
For test [2], the target named is B2.
Test [3] addresses B1.

In the case of B1, the “stoichiometry N” value in test [1] and in test [2] was 1 each time.
In test [3], B2 had a Kd of 6.1 µM. That is a single-digit micromolar value.
On to B3, for which, in test [3], binding was put at a Kd of 10.4 µM.

As usually defined, the stoichiometry N is a count of units in the complex or per binding partner. In general, Kd refers to a measure of binding affinity in units of concentration. Higher therefore signals weaker binding.
